What all share (experiment): SPR
A general note: Surface plasmon resonance follows binding to a sensor surface in real time, without labels.

Assay [1] concerns the target T1, Recombinant SERPINE1 protein (plasminogen activator inhibitor 1) (human, UniProt P05121 24-402).
Assay [2] has as its target T1, Recombinant SERPINE1 protein …. This is another data set of the same source.
The target of assay [3] is T2, Recombinant SERPINA1 protein (alpha-1 antitrypsin) (human, UniProt P01009 25-418).
Assay [4] has as its target T3, Recombinant SERPINC1 protein (antithrombin III) (human, UniProt P01008 33-464).
The target in assay [5] is T2, Recombinant SERPINA1 protein (alpha-1 …). This is another data set of the same source.
Assay [6] concerns the target T3, Recombinant SERPINC1 protein …. This is another data set of the same source.

T1 sequence (P05121 24-402): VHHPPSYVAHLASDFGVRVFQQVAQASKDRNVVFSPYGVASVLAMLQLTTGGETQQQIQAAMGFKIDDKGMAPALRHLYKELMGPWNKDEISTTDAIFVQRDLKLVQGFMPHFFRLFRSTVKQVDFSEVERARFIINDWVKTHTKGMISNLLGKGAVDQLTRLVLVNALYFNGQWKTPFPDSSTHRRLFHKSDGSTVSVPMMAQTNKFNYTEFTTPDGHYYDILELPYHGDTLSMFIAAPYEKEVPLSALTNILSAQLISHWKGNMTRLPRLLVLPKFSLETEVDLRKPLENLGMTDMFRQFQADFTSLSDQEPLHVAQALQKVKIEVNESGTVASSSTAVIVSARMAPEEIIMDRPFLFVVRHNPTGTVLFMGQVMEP
T3 sequence (P01008 33-464): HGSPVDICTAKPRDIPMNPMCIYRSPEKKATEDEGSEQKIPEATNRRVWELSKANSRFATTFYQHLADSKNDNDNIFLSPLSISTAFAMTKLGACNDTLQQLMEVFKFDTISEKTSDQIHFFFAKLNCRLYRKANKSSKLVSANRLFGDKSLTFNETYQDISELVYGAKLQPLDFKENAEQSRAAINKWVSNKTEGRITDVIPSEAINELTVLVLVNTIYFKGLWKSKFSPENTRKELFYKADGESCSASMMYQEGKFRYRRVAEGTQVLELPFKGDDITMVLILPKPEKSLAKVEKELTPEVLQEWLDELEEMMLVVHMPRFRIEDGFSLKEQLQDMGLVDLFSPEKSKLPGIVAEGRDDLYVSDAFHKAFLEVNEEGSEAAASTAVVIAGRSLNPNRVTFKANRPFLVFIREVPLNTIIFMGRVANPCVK
T2 sequence (P01009 25-418): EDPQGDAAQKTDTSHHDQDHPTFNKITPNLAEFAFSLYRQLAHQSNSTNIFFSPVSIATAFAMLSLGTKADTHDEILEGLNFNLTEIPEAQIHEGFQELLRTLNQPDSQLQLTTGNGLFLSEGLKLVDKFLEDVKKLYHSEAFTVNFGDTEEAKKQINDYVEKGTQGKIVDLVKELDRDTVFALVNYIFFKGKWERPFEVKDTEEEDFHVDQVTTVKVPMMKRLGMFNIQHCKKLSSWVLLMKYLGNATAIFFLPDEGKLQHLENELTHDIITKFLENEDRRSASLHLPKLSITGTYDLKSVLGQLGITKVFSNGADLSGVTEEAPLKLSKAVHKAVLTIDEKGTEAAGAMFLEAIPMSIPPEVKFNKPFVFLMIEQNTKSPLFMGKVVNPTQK

B1: Tissue plasminogen activator (enzyme)
chain: SYQVICRDEKTQMIYQQHQSWLRPVLRSNRVEYCWCNSGRAQCHSVPVKSCSEPRCFNGGTCQQALYFSDFVCQCPEGFAGKCCEIDTRATCYEDQGISYRGTWSTAESGAECTNWNSSALAQKPYSGRRPDAIRLGLGNHNYCRNPDRDSKPWCYVFKAGKYSSEFCSTPACSEGNSDCYFGNGSAYRGTHSLTESGASCLPWNSMILIGKVYTAQNPSAQALGLGKHNYCRNPDGDAKPWCHVLKNRRLTWEYCDVPSCSTCGLRQYSQPQFRIKGGLFADIASHPWQAAIFAKHRRSPGERFLCGGILISSCWILSAAHCFQERFPPHHLTVILGRTYRVVPGEEEQKFEVEKYIVHKEFDDDTYDNDIALLQLKSDSSRCAQESSVVRTVCLPPADLQLPDWTECELSGYGKHEALSPFYSERLKEAHVRLYPSSRCTSQHLLNRTVTDNMLCAGDTRSGGPQANLHDACQGDSGGPLVCLNDGRMTLVGIISWGLGCGQKDVPGVYTKVTNYLDWIRDNMRP
As for B1, the Kd (in general, the free concentration of one partner at which half of the binding sites on the other are occupied at equilibrium, for simple one-to-one binding) in assay [1] came to 246 nM. In addition, the koff (commonly the rate constant with which the complex falls apart) in assay [2] was 0.00787 s⁻¹.

B2: Active recombinant TMPRSS2 (transmembrane serine protease 2) (enzyme)
chain: not shown
On to B2, for which the Kd in assay [3] turned out to be 20.8 nM; in assay [1], 9.5 nM; in assay [4] it was 17.9 nM. Further, the koff in assay [5] is 0.00377 s⁻¹; in assay [2] it was 0.00253 s⁻¹; in assay [6], 0.00324 s⁻¹.
